Target: His-SP (RBD) (SARS-CoV-2, UniProt P0DTC2 319-541)
Assay: SPR

B1: His-CD147 (receptor)
chain: AAGTVFTTVEDLGSKILLTCSLNDSATEVTGHRWLKGGVVLKEDALPGQKTEFKVDSDDQWGEYSCVFLPEPMGTANIQLHGPPRVKAVKSSEHINEGETAMLVCKSESVPPVTDWAWYKITDSEDKALMNGSESRFFVSSSQGRSELHIENLNMEADPGQYRCNGTSSKGSDQAIITLRVRSHLAAL
- Kd: 185 nM
